The results in this text go back to paper PMC3984077.

The target of this test is HasSCTD, the last 78 residues of the antisigma factor HasS of Serratia marcescens (Serratia marcescens) (UniProt Q79AD3). Nature of the test: NMR titration; 1H-15N HSQC, one partner 15N-labelled in turn, peak intensities before and after adding the unlabelled partner; 250 µM HasSCTD with 200, 400 or 800 µM signaling domain, or 100 µM 15N signaling domain with 250 µM HasSCTD; control with 400 µM periplasmic domain; sodium phosphate pH 7, 50 mM NaCl, 0.05% Zw, 15% D2O; 20°C.

Regarding “signaling domain of the TonB-dependent outer membrane transporter HasR (from UniProt Q79AD2) (domain or fragment)”, the reduction of the overall HSQC peak intensity of 15N HasSCTD was 35%.
